assay: soluble on expression in E. coli; label from the status in PepcDB or PDB records

Sequence	soluble on expression in E. coli
SAAAADERSPEDGEDEEEEEQLVLVELSGIIDSDFLSKCENKCKVLGIDTERPILQVDSCVFAGEYEDTLGTCVIFEENVEHADTEGNNKTVLKYKCHTMKKLSMTRTLLTEKKEGEENIGGVEWLQIKDNDFSYRPNMICNFLHENEDEEVVASAPDKSLELEEEEIQMNDSSNLSCEQEKPMHLEIEDSGPLIDIPSETEGSVFMETQMLP	not soluble
SAARRALKAVLVDLNGTLHIEDAAVPGAQEALKRLRATSVMVRFVTNTTKETKKDLLERLKKLEFEISEDEIFTSLTAARNLIEQKQVRPMLLLDDRALPEFTGVQTQDPNAVVIGLAPEHFHYQLLNQAFRLLLDGAPLIAIHKARYYKRKDGLALGPGPFVTALEYATDTKAMVVGKPEKTFFLEALRDADCAPEEAVMIGDDCRDDVDGAQNIGMLGILVKTGKYKAADEEKINPPPYLTCESFPHAVDHILQHLL	soluble
SADCILVNSQFTAAVFKETFKSLSHIDPDVLYPSLNVTSFDSVVPEKLDDLVPKGKKFLLLSINRYERKKNLTLALEALVQLRGRLTSQDWERVHLIVAGGYDERVLENVEHYQELKKMVQQSDLGQYVTFLRSFSDKQKISLLHSCTCVLYTPSNEHFGIVPLEAMYMQCPVIAVNSGGPLESIDHSVTGFLCEPDPVHFSEAIEKFIREPSLKATMGLAGRARVKEKFSPEAFTEQLYRYVTKLLV	soluble
SAPALLTAAQRTMLAQVGACNSHLTSDENMAINELRLHKPRLPKDTWFFTDPNKDPDDVVTYTLGKQLQAEGFVHITDVVATLGDAEVRSQRAEMAKGVFNKLGLHDVHVSRGRDYAMNSLQSKEHAKFLLEGHALRAGPGEIHRDSLQDMSRRLARAPHGVGIVVIAGMSDINALITTCPDMVRERVDDITIMGGVEPLKDADGFVQPDARAYNNATDMDAARSLYRKAQELGIPLRIVTKEAAYKTAVSPSFYEGIAGSGHPVGHYLRDVQKSALKGLWEGIQAGLLPGLDDSWFFRTFMPNAQIEAAQLDKNKESSFEDIWPKVTKLNLYDPLTLLASVPGAAKLLFKPKAIHTEGFGVVEQVGPDDVTHPEKAKLLMSALAKSALVQSTVAPD	soluble
SAPEENAGTELLLQSFERRFLAARTLRSFPWQSLEAKLRDSSDSELLRDILHKTVKHPVCVKHPPSVKYARCFLSELIKKHEAVHTEPLDELYEALAETLMAKESTQGHRSYLLPSGGSVTLSESTAIISYGTTGLVTWDAALYLAEWAIENPAVFTNRTVLELGSGAGLTGLAICKMCRPRAYIFSDCHSRVLEQLRGNVLLNGLSLEADITAKLDSPRVTVAQLDWDVATVHQLSAFQPDVVIAADVLYCPEAIMSLVGVLRRLAACREDQRAPEVYVAFTVRNPETCQLFTTELGRAGIRWEVEPRHEQKLFPYEEHLEMAMLNLTL	soluble
SAPVGVEKKLLLGPNGPAVAAAGDLTSEEEEGQSLWSSILSEVSTRARSKLPSGKNILVFGEDGSGKTTLMTKLQGAEHGKKGRGLEYLYLSVHDEDRDDHTRCNVWILDGDLYHKGLLKFAVSAESLPETLVIFVADMSRPWTVMESLQKWASVLREHIDKMKIPPEKMRELERKFVKDFQDYMEPEEGCQGSPQRRGPLTSGSDEENVALPLGDNVLTHNLGIPVLVVCTKCDAVSVLEKEHDYRDEHLDFIQSHLRRFCLQYGAALIYTSVKEEKNLDLLYKYIVHKTYGFHFTTPALVVEKDAVFIPAGWDNEKKIAILHENFTTVKPEDAYEDFIVKPPVRKLVHDKELAAEDEQVFLMKQQSLLAKQPATPTRASESPARGPSGSPRTQGRGGPASVPSSSPGTSVKKPDPNIKNNAASEGVLASFFNSLLSKKTGSPGSPGAGGVQSTAKNSGQKTVLSNVQEELDRMTRKPDSMVTNSSTENEA	soluble
SASLDRVKVLVLGDSGVGKSSLVHLLCQNQVLGNPSWTVGCSVDVRVHDYREGTPEEKAFYIELWDVGGSVGSASSVKSTRAVFYNSVNGIILVHDLTNKKSSQNLYRWSLEALSKDSSPTGIIVSNGDYDREQFAENAVPLLLIGTKFDQIPENKRNDVLTRTAFLSEDFNAEEINLDCTNPRYLAAGSSNAVKLSRFFDKVIEKRYFTRDPSQMQSFTDRRRFNFKSLHSD	soluble
SASLIQRIARQACLTFRGSSTGSEGPAPGFPENLSLLKSLLTQVRAEDLNIAPRKALPQPLPRNLPPVTYMHIYETEGFSLGVFLLKSGTCIPLHDHPGMHGMLKVLYGTVRISCMDKLDTGAGHRRPPPEQQFEPPLQPLEREAVRPGVLRSRAEYTEASGPCVLTPHRDNLHQIDAVDGPAAFLDILAPPYDPEDGRDCHYYRVVEPIRPKEASGSACDLPREVWLLETPQADDFWCEGEPYPGPKVLP	soluble
SAVFADLDLRAGSDLKALRGLVETAAHLGYSVVAINHIVDFKEKKQEIEKPVAVSELFTTLPIVQGKSRPIKILTRLTIIVSDPSHCNVLRATSSRARLYDVVAVFPKTEKLFHIACTHLDVDLVCITVTEKLPFYFKRPPINVAIDRGLAFELVYSPAIKDSTMRRYTISSALNLMQICKGKNVIISSAAERPLEIRGPYDVANLGLLFGLSESDAKAAVSTNCRAALLHGETRKTAFGIISTVKKPRPSEGDEDCLPASKKAKCEG	soluble
SCREKTELTPDQQTLLHFIMDSYNKQRMPQEITNKILKEEFSAEENFLILTEMATNHVQVLVEFTKKLPGFQTLDHEDQIALLKGSAVEAMFLRSAEIFNKKLPSGHSDLLEERIRNSGISDEYITPMFSFYKSIGELKMTQEEYALLTAIVILSPDRQYIKDREAVEKLQEPLLDVLQKLCKIHQPENPQHFACLLGRLTELRTFNHHHAEMLMSWRVNDHKFTPLLCEIWDVQ	soluble
SDALSWGHGPRLFEVFLEPTCPFSVKAFFKLDDLLAQAGEDNVTVRIRLQSQPWHMFSGVIVRCILAAATLEGGKESAKAVMTAVASHREEFEFEHHAGGPNLDATPNDIIARIERYSGLALAEAFANPELEHAVKWHTKYARQNGIHVSPTFMINGLVQPGMSSGDPVSKWVSDIG	not soluble
SDLSWIKPGKVAWDWWNDWNLDGVDFVTGVNNPTYKAYIDFASANGIEYVILDEGWAVNLQADLMQVVKEIDLKELVDYAASKNVGIILWAGYHAFERDMENVCRHYAEMGVKGFKVDFMDRDDQEMTAFNYRAAEMCAKYKLILDLHGTHKPAG	not soluble
SDRAEVRNIPFKLGMYLTVGGVVNSNATRFSINVGESTDSIAMHMDHRFSYGADQNVLVLNSLVHNVGWQQEERSKKFPFTKGDHFQITITFDTHTFYIQLSNGETVEFPNRNKDAAFNLIYLAGDARLTFVRLE	soluble
SDRAMMNAFKEITTMADRINLPRNIVDRTNNLFKQVYEQKSLKGRANDAIASACLYIACRQEGVPRTFKEICAVSRISKKEIGRCFKLILKALETSVDLITTGDFMSRFCSNLCLPKQVQMAATHIARKAVELDLVPGRSPISVAAAAIYMASQASAEKRTQKEIGDIAGVADVTIRQSYRLIYPRAPDLFPTDFKFDTPVDKLPQL	soluble
SDRPLSVHLNLGQKGNRKTSCPIKINQFEGHFMKLQADSNYLLSKEYEELKDVGRNQSCDIALLPENRGKNRYNNILPYDATRVKLSNVDDDPCSDYINASYIPGNNFRREYIVTQGPLPGTKDDFWKMVWEQNVHNIVMVTQCVEKGRVKCDHYWPADQDSLYYGDLILQMLSESVLPEWTIREFKICGEEQLDAHRLIRHFHYTVWPDHGVPETTQSLIQFVRTVRDYINRSPGAGPTVVHCSAGVGRTGTFIALDRILQQLDSKDSVDIYGAVHDLRLHRVHMVQTECQYVYLHQCVRDVLRARKLRSEQ	soluble
SDRWEVPVNPSNVRSASSHQTVSASDRASDKVDERPATFSHFQLARCGEDYTLSMVSLAAYQAERRHRGNLIKDRSQSALPWVQVYHSETGLDYSFQIDRTTTVKVAGFNYNVPNDGETRHLYSAGTSQVNMPVITDNMSACIAVACAAENVDAGTGERRPGAKVRVFHLLPFRREDLMPEQVLASVRDYLRDIKEQGLTMRVALHGGNREGDFSVSTAEALKSLFADEGIPIEFDETCANRTSETLLGAVILNDNSTQFIKH	not soluble
SDVIKTQQISARTIEKVIVHPLVLLSIVDHYNRVAKDTSKRVVGVLLGSSSRGTVDVTNSYAVPFEEDDKDTSIWFLDHNYHESMFHMFKRINAKEHIVGWYSTGPKLRENDLDVHALFNGYVPNPVLVIIDVQPKELGIPTKAYYAVEEVKENATQKSQQVFVHVPTEIAAHEVEEIGVEHLLRDVKDTTISTLATEVTAKLTALKGLDARLREIRTYLDLVIEGKLPLNHEILYHLQDVFNLLPNLNVNELVKAFAVKTNDMMLVIYLSSLIRSVIALHSLINNKLLNKEHEKAEDSKPVDIPLITES	soluble
SEATKERVGLLDTILPPALADAGLEDCALPPESIQEAFRKAANAVKSRAASIFDHEEEDGCLADPIPETADKIIVGGDNERDTGPCLAGKGIEKLAESKQAGDLVVAGEGEEGKSCVDGLKDLDVEGIERSSEKKDQSDEDEEEEMKPILVEGFV	soluble
SEKLINRVGPNGESRAQAVTSDQEKRLLHQLREITRVMKEGKFIDTSPEKEAEEAPYMEDWEGYPEETYPIYDLSDGIKRRQETILVDYPDLKEPSAEEIAEQMGEIEEEGSERLSWDHLPTDPGAQKDNSVAPCDPKPESCSCCVHEEEDPAVLAENAGFSADGYSEQEEATKENLPQDFTNEGLGVSTDNAHVGGMLRKRNPQGFE	soluble
SEKTQETVQRILLEPYKYLLQLPGKQVRTKLSQAFNHWLKVPEDKLQIIIEVTEMLHNASLLIDDIEDNSKLRRGFPVAHSIYGIPSVINSANYVYFLGLEKVLTLDHPDAVKLFTRQLLELHQGQGLDIYWRDNYTCPTEEEYKAMVLQKTGGLFGLAVGLMQLFSDYKEDLKPLLNTLGLFFQIRDDYANLHSKEYSENKSFCEDLTEGKFSFPTIHAIWSRPESTQVQNILRQRTENIDIKKYCVHYLEDVGSFEYTRNTLKELEAKAYKQIDARGGNPELVALVKHLSKMFKEENE	soluble
SENLYFQSKVTVGPDPSLVYRPDVDPEVAKDKASFRNYTSGPLLDRVFTTYKLMHTHQTVDFVRSKHAQFGGFSYKKMTVMEAVDLLDGLVDESDPDVDFPNSFHAFQTAEGIRKAHPDKDWFHLVGLLHDLGKVLALFGEPQWAVVGDTFPVGCRPQASVVFCDSTFQDNPDLQDPRYSTELGMYQPHCGLDRVLMSWGHDEYMYQVMKFNKFSLPPEAFYMIRFHSFYPWHTGRDYQQLCSQQDLAMLPWVREFNKFDIYTKCPDLPDVDKLRPYYQGLIDKYCPGILSW	soluble
SESWRSFFKEALQGVGDMGRAYWDIMISNHQNSNRYLYARGNYDAAQRGPGGVWAAKLISRSRVYLQGLIDYYLFGNSSTVLEDSKSNEKAEEWGRSGKDPDRFRPDGLPKKY	soluble
SGFNHVKPTEYKPRLLHISGDKNAKVAEVPLATSSLNSGDCFLLDAGLTIYQFNGSKSSPQEKNKAAEVARAIDAERKGLPKVEVFCETDSDIPAEFWKLLGGKGAIAAKHETA	soluble
SGGGGGVLWDTPSPKEYKKGDTTTGVYRIMTRGLLGSYQAGAGVMVEGVFHTLWHTTKGAALMSGEGRLDPYWGSVKEDRLCYGGPWKLQHKWNGQDEVQMIVVEPGKNVKNVRTKPGVFKTPEGEIGAVTLDFPTGTSGSPIVDKNGDVIGLYGNGVIMPNGSYISAIVQGKRMDEPIPAGFEPEMLGSRSHHHHHH	soluble
SHRKFVVQLFAEEWGQYVDLPKGFAVSERCKVRLVPLQIQLTTLGNLTPSSTVFFCCDMQERFRPAIKYFGDIISVGQRLLQGARILGIPVIVTEQYPKGLGSTVQEIDLTGVKLVLPKTKFSMVLPEVEAALAEIPGVRSVVLFGVETHVCIQQTALELVGRGVEVHIVADATSSRSMMDRMFALERLARTGIIVTTSEAVLLQLVADKDHPKFKEIQNLIKASAPESGLLSKV	soluble

— the DeepSol protein solubility set
